The data set can be described thus: label from the status in PepcDB records.
Regarding “MSLKHVVVIGAVALGPKAACRFKRLDPEAHVTMIDQASRISYGGCGIPYYVSGEVSNIESLQATPYNVVRDPEFFRINKDVEALVETRAHAIDRAAHTVEIENLRTGERRTLKYDKLVLALGSKANRPPVEGMDLAGVTPVTNLDEAEFVQHAISAGEVSKAVIVGGGFIGLEMAVSLADMWGIDTTVVELADQIMPGFTSKSLSQMLRHDLEKNDVVVHTGEKVVRLEGENGKVARVITDKRTLDADLVILAAGVSPNTQLARDAGLELDPRGAIIVDTRMRTSDPDIFAGGDCVTIPNLVTGKPGFFPLGSMANRQGRVIGTNLADGDATFPGAVGSWAVKLFEGSASGAGLTVEGALREGYDAVNVHVEQFDRAHFYPEKTIMTLQLVVDRPTRRVLGIQGFSTLGDALTARINAVATMLASKPTVEDISNAEVVYSPPFASAMDIVNVAGNVADNVLAGREGHHHHHH”, the protein production result was “not failed”.
For “SEVRWCATSDPEQHKCGNMSEAFREAGIQPSLLCVRGTSADHCVQLIAAQEADAITLDGGAIYEAGKEHGLKPVVGEVYDQEVGTSYYAVAVVRRSSHVTIDTLKGVKSCHTGINRTVGWNVPVGYLVESGRLSVMGCDVLKAVSDYFGGSCVPGAGETSYSESLCRLCRGDSSGEGVCDKSPLERYYDYSGAFRCLAEGAGDVAFVKHSTVLENTDGKTLPSWGQALLSQDFELLCRDGSRADVTEWRQCHLARVPAHAVVVRADTDGGLIFRLLNEGQRLFSHEGSSFQMFSSEAYGQKDLLFKDSTSELVPIATQTYEAWLGHEYLHAMKGLLCDPNRLPPYLRWCVLSTPEIQKCGDMAVAFRRQRLKPEIQCVSAKSPQHCMERIQAEQVDAVTLSGEDIYTAGKKYGLVPAAGEHYAPEDSSNSYYVVAVVRRDSSHAFTLDELRGKRSCHAGFGSPAGWDVPVGALIQRGFIRPKDCDVLTAVSEFFNASCVPVNNPKNYPSSLCALCVGDEQGRNKCVGNSQERYYGYRGAFRCLVENAGDVAFVRHTTVFDNTNGHNSEPWAAELRSEDYELLCPNGARAEVSQFAACNLAQIPPHAVMVRPDTNIFTVYGLLDKAQDLFGDDHNKNGFKMFDSSNYHGQDLLFKDATVRAVPVGEKTTYRGWLGLDYVAALEGMSSQQC”, the protein production entry is “not failed”.
Next, “MSEPMSERERWQLELDKLQRGLQGDPFAFLGPQRDPGGEGGVLRAYLPGAQRVELLDEDGATLAELEQSDPGSGLFQRHLERLPPRYRLRVHWPDGVQESEDPYAFGPLLGELDLYLFAEGNHRQLASCLGAQLTRHEGVEGVRFAVWAPNAVRVSVVGDFNGWDGRRHPMRRRYPSGVWELFVPRLGEGELYKYELQGHDGLLPLKADPLALACETPPGTASKTCAALRHEWRDQDWLARRAERQGYAAP”: “failed”; “MKDIVIIGTENIGKEVVKIIEAINSKRNTWNVLGFISLKKDEEGSNIEGYSVLESIDSMFNYFEGRKKDKFYFFKKLESQNELFTIIAIDNCKLKKEIENKLKNKIKFATIIHPDVSFFNKQEVGEGTIIYPGLIVVGRFKLGKHVILKQKCSLGNNIEIGDYSFISFNSNIDSNVMVKEGSYIEANTTILANSNIDKNTYIKEGSILY”: “failed”.
“MARVAIPSVGKDLSSMVSDRFARAEYFIIYDTESGNVEVVENTIADAHGTGPKVVQSLVSKGVEYLIASNVGRNAFETLKAAGVKVYRFEGGTVQEAIDAFSEGRLEELTTFTREG”: the protein production result is “not failed”.
On to “MRITVMTAGEQIITLDVDSQETVENVKALLEVESNVPIQQQQLLYNGNEMGNSDKLSALGVKDDDLLMMMVSNASSGSATSAAGNDLGMNPDGSALNPAAFQQHIRGDSNLMGQLFQNDPELAQVISGSDLNKLQDVLRARHRQRSVLQRQKEEELALLYADPFDVEAQRKIEAAIRQKGIDENWEAALEHNPEGFARVIMLYVDMEVNGVPLKAFVDSGAQSTIISKSCAERCGLLRLMDQRYKGIAHGVGQTEILGRIHVAPIKIGNNFYPCSFVVLDSPNMEFLFGLDMLRKHQCTIDLKENVMTVGGGEVSVPFLQEKDIPSRFLDEERVPNDASSSGATVPSGFTEKKNNTVANPTSQQPKRQNTSEGPEFEAKIAKLVELGFSRDSVIQALKLFEGNEEQAAGFLFGG”, for which the protein production entry was “failed”.
On to “MMPPQRSAGTDPEAEHPQYAGQYLLEAALGSGGMGVVHLARSASGLRLAVKVVHAQYAQDPEFRGRFRQEVAAARRVSGAFTAPVVDADPGAGRPWMATLFIPGPTLAEHVKRNGALPPARLRHLMAGLAEALRDIHRAGVVHRDLKPSNVLLAEDGPKVIDFGISRPSDSELRTETGKLIGTPPFMAPEQFRRPREVGPAADVFALGSVIVHAATGSGPFDSDSPYLVAYQVVHDEPDLTGVPEELAELVAGCLAKEPDDRPTPDELMTALRSVSASYDTQAFIPVQRDGSSGSAWRPGPGPGTGPGTGPGPGPGHGGERVVTHQVRQPEPVAAPAARKRLGRRLWIPAVAVAVLACVAGALVLLGPGTGAPREQDAAPSKAAFQPWDIGLSAGGSKATGMAQCAYAPHRLYCTRPGVLAAAVDPADGKVLWSRGDAKRHSDGTVRPPVLSGGLLHVVSEGGKRLAALDPATGKTRWSHDLAAYGGRFAQVGGVVLLTGADARVTALDAATGEEKWRRRIPGQPQPAFVSYGDGLAYAVAAAGSGTKVAAVDPESGATRWQRRFDGVLSLVGAHDGAVWFASTTADSDTDAVVRYDVTRRTVRRVGLRFPLQGAQAVVRKDTVYVLANGGALVAVDTRTSKELWRLETSVSFASAPVAAGDRVYFAGADGRLLAVDASKGVLLGQTKARLGGAHGSLVSGLPSPVAADGKVYSAAPDGSLFAVDARRPGGW”, for which the protein production entry is on record as “failed”.
“MNNKTNWVIIGRFGRPHGIKGFVTVHSFTDPADNILRYNDWHVFLNKQWQPLKLLTIEVRSKAIIAQIEGYPKRELVSALTNLDIGVQESQLAALAPGEYYWYQLIGMSVINSKGDLFGKVVEIMPTGSNDVLVVEGEKRHLIPYLPGQFVINVDESQQVITVDWDMNF”: the protein production entry is “failed”.
The value for “SVDLAHIRQVRAEADCLFNNDEVEAAIGRVAEAINRDLGETNPVVFCVMNGGLIFSGKLLPLLDFPLELSYLHATRYRNETSGGELFWKAKPEISFIDRDVLIIDDILDEGHTLSAIIDFCKHAGARAVHTAVLVDKEHERKARPDLKASFTGLYCADRYVFGYGMDYKGYWRNA” was “failed”; that for “MDKTQSYDIFLIAPPGLEQVLAEEATACGFDEPRVVPGGVETRGPWSEVMRANLVLRGAGRVLVRIGGFPAVHLAQLDKRARKFAWGDFLRPDRPIRVEAVSRKSKIYHAGAAKQRVERAITEELGAPISDEAEIRLMLRIERDFCTFSIDTSGEALHKRGHKEAVGKAPMRETMAALFLRQCGFDGAEPVLDPMCGSGSFVIEAAEWAAGLMPGRSRSFAFEQLAGFDAAQWQSMRNAAGAGGRPESLYSGSDRNAGAIDASRANATRAGVADFCAFHQRPVSDIRPPEGRPGLVIVNPPYGARIGDQARLRSLYGSLGKVLMDRFSGWRVGLITSEMSLARSTRLPFQAPGPVVDHGGIKVRLYQSVRLR” was “failed”.
On to “MSAPQVWPWTNQTPPLKGDPTPEPKPQERPTRLKHPLDAPHSVYGVDKWGKGLIVVTEEGEIGLKNPLRPEADAVSLPGILHDLEQRGIRAPMILRISSYLENEICHINDSFADAIARSGYKGAYRGVFPIKVNQQAQVIDRIVEFGHRYSYGLEAGSKPELVIALAHKLATDALIVCNGVKDAEFVRLAILSRKLGFNTVIVLESPKEADTVIAVYEELGIEPLLGVRVKLTNQISGKWEESSGDRSSFGMNTDQLVRVVDKLRDAGLIHCLKLQHSHLGSQVPDVNDVRRAVGEACRYFTELSAEGVPLTHLDLGGGMGVDYTGEKRATENSINYTVEEYCANVVETVAYAMDEAGIDHPTIVTESGRAVVATSSLLVFNVLESTLYDAPTAPGTEPDDHHLVSDLAAVNGYLTPARLQECWNDATFYRNELRALFRRGYVDLRQMARAERIYLSLMARIKTMVAEVEAETDLDAQMEKIADIYHCNFSLFQSLPDVWAIDQLHPIVPLQMLNEAPDRRAVLSDITCDSDGKVDRFILADGVSPSLPVHSLPEDQDYYLGVFFVGAYQETLGDLHNLFGDTNVVTIDLRADGGFDLLHEQEGDTISEVLSYVEYDPADCVAAFRKLVDGAISNGCLKASERKLIIGAYRDSINGYTYYE”, for which the protein production entry is reported as “failed”.
As to “MTLYKQLVAGMIAVFILLLISVFTIEFNTTRNSLEQQQRSEVNNTINTVGLALAPYLEKKDTIAVESVINALFDGSSYSIVRLIFLDDGTEILRSYPIQPNNVPAWFTQLNLFEPIHDRRVVTSGWMQLAEVEIVSHPGAAYAQLWKALIRLSIAFLAILVIGMFAVAFILKRSLRPLQLIVNKMEQVANNQFGEPLPRPNTRDLIYVVDGINKMSEQVEKAFKAQAKEAQQLRERAYLDPVSHLGNRAYYMSQLSGWLSESGIGGVAILQAEFIKELYEEKGYEAGDGMVRELADRLKNSITIKDISIARISTYEFGIIMPNMDETELKIVAESIITCVDDINPDPTGMAKANLSLGVVSNKRQSSTTTLLSLLDNALLKRNPILS”, the protein production entry was “failed”.
In the case of “MKNKTYYLSIIFTSLVCLFLFTKALGFILWINGAPIDKWVAWVGLFAIPIFIYYSFPGRSLKKTQKIVTIVIIIVQIIWLKWAINQSKYYVYVNSNNILPSPYIIQETPNSNTPISLGQRLLTNYTFYKSIHSYLYVRENVTKSDRGIVDWIKHFDSEIKEEEDDGRIYIETYKGKLFFK”, the protein production result is “failed”.
For the sequence “TKTTTQGAKSGVFDTVDEAVQAAVIAQNCYKEKSLEERRNVVKAIREALYPEIETIATRAVAETGMGNVTDKILKNTLAIEKTPGVEDLYTEVATGDNGMTLYELSPYGVIGAVAPSTNPTETLICNSIGMLAAGNAVFYSPHPGAKNISLWLIEKLNTIVRDSCGIDNLIVTVAKPSIQAAQEMMNHPKVPLLVITGGPGVVLQAMQSGKKVIGAGAGNPPSIVDETANIEKAAADIVDGASFDHNILCIAE”, the protein production result is recorded as “not failed”.
The value for “STSPEIASLSWGQMKVKGSNTTYKDCKVWPGGSRTWDWRETGTEHSPGVQPADVKEVVEKGVQTLVIGRGMSEALKVPSSTVEYLKKHGIDVRVLQTEQAVKEYNALVAQGVRVGGVFHSTC” was “not failed”.
“MLSNRFNRWTVAAIALMGTAIATVPGRVLAQTPDHPSDTAAQFPTRNDLKSLTTSGSYLAARHASVERDATSAAAFYRSALRTDPKNNELLDRAFISSVADGDIDEAVKLAERVLTIDKTNRVARLVVGVHDLKMKKYATAQTNINQSIRGPITDLVATLLSGWAAYGAGDSKGAVATIDKLAGPEWYPLFKDLHAGMILELAGKEKDAGTRFERAYKLDDSMLRVTEAYARWLSRNKDAAAATTVYQAFDKKLARHPLIVEGLRDTKAGKKLPPLVDSAQAGAAEALYGIGATLTRRGGEDLALVYLQLSLYLQPTHPLALLSLADLYESVKRPQMAIKVYERVPSTSPLKRNAQIQLAIDLDSADRTDEAIKILKGVTSEDSKDLEAIMALGNIERGRKKFGDCGATYSQGVDVLPAGNDKANSVWYYYRGICEERSKQWAKAEADMKKALELQPDQPHVLNYLGYSWIDQGVNLDEGMKMIKRAVEQRPDDGYIVDSLGWAYYRIGNYEEAVKNLERAIDLKPEDPTINDHLGDAYWRVGRTLEAKFQWSHARDLKPEPDELPKIEAKIANGLTEDNSNSSAAQAEKKKDDGKGG”: the protein production result was “failed”.
“SKELKVLVLCAGSGTSAQLANAINEGANLTEVRVIANSGAYGAHYDIMGVYDLIILAPQVRSYYREMKVDAERLGIQIVATRGMEYIHLTKSPSKALQFVLEHYQ”: the protein production result is “not failed”.
